Experimental data reported in patent US20090286739A1 (FIBREX MEDICAL RESEARCH AND DEVELOPMENT, published 2009).
Non-standard residues stand in square brackets, D forms with d. Primed or numbered codes have the meaning given here. No end group written: not given here. Haic′ = not defined here; Acdn = not defined here

T1: vascular endothelial (VE) cadherin (human, UniProt P33151 48-784)
T1 sequence (looked up): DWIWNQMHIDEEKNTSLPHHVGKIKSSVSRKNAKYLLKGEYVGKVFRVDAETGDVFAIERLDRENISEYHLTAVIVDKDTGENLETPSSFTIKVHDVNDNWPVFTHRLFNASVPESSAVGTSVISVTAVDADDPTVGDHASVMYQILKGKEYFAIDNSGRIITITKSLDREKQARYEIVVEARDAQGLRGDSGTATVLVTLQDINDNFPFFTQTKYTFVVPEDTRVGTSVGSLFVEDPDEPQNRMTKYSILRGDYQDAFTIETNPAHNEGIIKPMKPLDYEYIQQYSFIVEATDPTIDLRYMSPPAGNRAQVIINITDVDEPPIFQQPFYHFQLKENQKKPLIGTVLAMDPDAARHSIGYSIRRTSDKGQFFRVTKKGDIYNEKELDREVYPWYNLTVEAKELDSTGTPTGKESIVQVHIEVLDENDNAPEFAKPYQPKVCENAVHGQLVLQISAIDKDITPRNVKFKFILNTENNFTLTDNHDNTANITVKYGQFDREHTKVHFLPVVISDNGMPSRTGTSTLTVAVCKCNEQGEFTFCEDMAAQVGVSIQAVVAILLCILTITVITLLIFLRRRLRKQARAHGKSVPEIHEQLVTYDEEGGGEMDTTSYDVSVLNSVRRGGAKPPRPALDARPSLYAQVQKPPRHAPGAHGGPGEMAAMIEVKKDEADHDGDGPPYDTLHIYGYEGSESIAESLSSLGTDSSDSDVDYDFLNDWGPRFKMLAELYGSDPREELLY


Each binder was assayed against T1, vascular endothelial (VE) cadherin (assay: cell-based or functional assay).

Binder | Relative RhoA stimulation compared to unstimulated control
GHRPLDK[cis‑4‑Acha]ISGGGYR [Gly-His-Arg-Pro-Leu-Asp-Lys-(cis-4-Acha)-Ile-Ser-Gly-Gly-Gly-Tyr-Arg] | 1 fold of unstimulated control
GHRPLDK[(1S,2R)Achc]ISGGGYR (not fully specified; printed as Gly-His-Arg-Pro-Leu-Asp-Lys-(1S,2R)Achc-Ile-Ser-Gly-Gly-Gly-Tyr-Arg) [Gly-His-Arg-Pro-Leu-Asp-Lys-(1S,2R)Achc-Ile-Ser-Gly-Gly-Gly-Tyr-Arg] | 1.5 fold of unstimulated control
GHRPLDK[Haic′]ISGGGYR [Gly-His-Arg-Pro-Leu-Asp-Lys-Haic-Ile-Ser-Gly-Gly-Gly-Tyr-Arg] | 1.3 fold of unstimulated control
GHRPLDK[Acdn]ISGGGYR-NH2 (reading uncertain; also: printed as Gly-His-Arg-Pro-Leu-Asp-Lys-Acdn-Ile-Ser-Gly-Gly-Gly-Tyr-Arg-NH2) [Gly-His-Arg-Pro-Leu-Asp-Lys-Acdn-Ile-Ser-Gly-Gly-Gly-Tyr-Arg] | 1.3 fold of unstimulated control
